Data reported in the supplement of paper PMC6757056.
± gives the standard deviation of the averaged measurements.

B1: library; a variant is named by its letters at N, in order (parent)
chain: GCUGUCACCGAGAAACUGUGAAGUAUAUCUUAAACCUGGGCACUUAAAAGAUAUAUGGAGUUAGUAGUGCAACCUGCUCGGUCUGAUGAGUCCNNNNNNGGACGAAACAGC

What was measured:
cyclic di-GMP [1] = variants of: B1; assay: normalized RNA/DNA level without ligand (relative to sTRSVctl = 100) (log10 (% of sTRSVctl)); HEK293T; ligand: cyclic di-GMP (c-di-GMP-II aptamer); higher = less ribozyme self-cleavage, higher mRNA level; settings: reporter: mCherry (pCS4076), ligand present: no
How it was run: (§1)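 For each 6-well well, 4 µg of library plasmid encoding mCherry-linked ribozyme switches, or eGFP-linked ones in some ligand experiments, was transfected into HEK293T. Any ligand was added 1 h before transfection, and RNA was extracted with EDTA 72 h after it, then reverse-transcribed, amplified, barcoded and sequenced. RNA level was obtained by dividing RNA reads by DNA reads, normalizing to a spiked-in non-cleaving sequence or to the top sequences, then scaling and log-transforming. The top set was 25 sequences, scaling was ×100 with log10, and ≥100 DNA reads were required.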

cyclic di-GMP [2] = variants of: B1; assay: normalized RNA/DNA level with ligand (relative to sTRSVctl = 100) (log10 (% of sTRSVctl)); HEK293T; ligand: cyclic di-GMP (c-di-GMP-II aptamer); ligand concentration (+) RNA-Seq: 1 mM; higher = less ribozyme self-cleavage, higher mRNA level; settings: reporter: mCherry (pCS4076), ligand present: yes
How it was run: as §1

Variant | normalized RNA/DNA level without ligand (log10) (cyclic di-GMP [1]) | normalized RNA/DNA level with ligand (log10) (cyclic di-GMP [2])
AAUUGU | 1.66 ± 0.061 | 1.83 ± 0.075
GUUACA | 1.661 ± 0.0095 | 1.8 ± 0.11
AAACGU | 1.47 ± 0.095 | 1.62 ± 0.18
UCUUAC | 1.704 ± 0.017 | 1.86 ± 0.054
UUAAGU | 1.71 ± 0.02 | 1.82 ± 0.1
UUAUAC | 1.73 ± 0.018 | 1.86 ± 0.053
GGUUAU | 1.64 ± 0.049 | 1.8 ± 0.2
AGAAGC | 1.56 ± 0.13 | 1.74 ± 0.077
CCGGCG | 1.69 ± 0.023 | 1.77 ± 0.05
ACUCCA | 1.7 ± 0.02 | 1.84 ± 0.11
AACACG | 1.55 ± 0.073 | 1.74 ± 0.088
CUCCUG | 1.78 ± 0.065 | 1.85 ± 0.13
UCACUC | 1.73 ± 0.068 | 1.89 ± 0.12
UCACUG | 1.632 ± 0.0038 | 1.81 ± 0.16
UCGCCG | 1.81 ± 0.091 | 1.95 ± 0.14
GGUAUG | 1.59 ± 0.093 | 1.74 ± 0.04
UGCGCG | 1.821 ± 0.0063 | 1.92 ± 0.085
CUCUGA | 1.663 ± 0.015 | 1.81 ± 0.09
CUGGGA | 1.55 ± 0.09 | 1.74 ± 0.093
CUCGGC | 1.797 ± 0.0073 | 1.9 ± 0.088
AAUCGG | 1.6 ± 0.048 | 1.76 ± 0.12
UAGGGC | 1.64 ± 0.035 | 1.78 ± 0.1
CGCAUC | 1.66 ± 0.037 | 1.83 ± 0.11
AGAUAC | 1.64 ± 0.029 | 1.79 ± 0.12

Variant | normalized RNA/DNA level without ligand (log10) (cyclic di-GMP [1]) | normalized RNA/DNA level with ligand (log10) (cyclic di-GMP [2])
GCAAGA | 1.33 ± 0.12 | 1.54 ± 0.1
AUGAGG | 1.55 ± 0.044 | 1.73 ± 0.085
CCAUGU | 1.68 ± 0.054 | 1.8 ± 0.097
CUAGCA | 1.71 ± 0.064 | 1.78 ± 0.13
AUUUCU | 1.74 ± 0.06 | 1.87 ± 0.12
CGAAGC | 1.7 ± 0.06 | 1.81 ± 0.054
ACCUUU | 1.63 ± 0.02 | 1.82 ± 0.081
CCCUAU | 1.62 ± 0.048 | 1.8 ± 0.069
UAGCUG | 1.74 ± 0.038 | 1.86 ± 0.084
AUCGCU | 1.7 ± 0.023 | 1.81 ± 0.089
AUCGCA | 1.65 ± 0.018 | 1.77 ± 0.12
AGAAAU | 1.71 ± 0.03 | 1.83 ± 0.058
AGUACG | 1.58 ± 0.046 | 1.74 ± 0.065
AAUCCC | 1.77 ± 0.032 | 1.86 ± 0.087
CUCUCA | 1.57 ± 0.056 | 1.78 ± 0.098
CGCCGU | 1.77 ± 0.049 | 1.87 ± 0.063
UCCCCG | 1.82 ± 0.03 | 1.96 ± 0.11
CGAUAC | 1.61 ± 0.033 | 1.77 ± 0.084
GCUAAA | 1.46 ± 0.085 | 1.67 ± 0.11
CAUCCG | 1.82 ± 0.035 | 1.88 ± 0.09
AGAGGU | 1.57 ± 0.022 | 1.73 ± 0.077
GGACGC | 1.656 ± 0.0062 | 1.82 ± 0.1
GACGCG | 1.81 ± 0.055 | 1.88 ± 0.045
UCCCUA | 1.696 ± 0.014 | 1.84 ± 0.092

Variant | normalized RNA/DNA level without ligand (log10) (cyclic di-GMP [1]) | normalized RNA/DNA level with ligand (log10) (cyclic di-GMP [2])
CCUCGC | 1.745 ± 0.0039 | 1.82 ± 0.14
ACCCUU | 1.66 ± 0.046 | 1.78 ± 0.12
UUUCCA | 1.78 ± 0.028 | 1.9 ± 0.13
UUCCAG | 1.76 ± 0.022 | 1.89 ± 0.093
CCGUGC | 1.58 ± 0.036 | 1.76 ± 0.086
UGUCAU | 1.68 ± 0.049 | 1.81 ± 0.1
GCGAGA | 1.41 ± 0.14 | 1.63 ± 0.073
AUAGUG | 1.56 ± 0.068 | 1.71 ± 0.083
ACGAGG | 1.5 ± 0.06 | 1.69 ± 0.1
CCUAGA | 1.585 ± 0.0086 | 1.79 ± 0.074
UAGGCG | 1.768 ± 0.013 | 1.87 ± 0.12
CUAAGA | 1.53 ± 0.068 | 1.72 ± 0.079
UUUCUG | 1.795 ± 0.012 | 1.92 ± 0.091
UCUCUC | 1.81 ± 0.069 | 1.9 ± 0.12
CAACUU | 1.49 ± 0.093 | 1.69 ± 0.078
ACCACA | 1.6 ± 0.019 | 1.76 ± 0.13
UCUAAC | 1.6887 ± 0.0016 | 1.83 ± 0.13
AAUACU | 1.71 ± 0.023 | 1.84 ± 0.085
AUCUCG | 1.76 ± 0.023 | 1.87 ± 0.15
CCAAAG | 1.41 ± 0.056 | 1.61 ± 0.1
ACUACG | 1.61 ± 0.022 | 1.81 ± 0.1
AUCGAA | 1.45 ± 0.084 | 1.67 ± 0.09
UAGGUC | 1.64 ± 0.032 | 1.81 ± 0.12
AGAUUU | 1.66 ± 0.052 | 1.81 ± 0.17

Variant | normalized RNA/DNA level without ligand (log10) (cyclic di-GMP [1]) | normalized RNA/DNA level with ligand (log10) (cyclic di-GMP [2])
AUUGCA | 1.67 ± 0.055 | 1.81 ± 0.095
AGUCUG | 1.629 ± 0.012 | 1.76 ± 0.056
AGGUUC | 1.75 ± 0.026 | 1.86 ± 0.14
UUGGUC | 1.77 ± 0.0052 | 1.86 ± 0.11
CAAUUC | 1.66 ± 0.019 | 1.82 ± 0.065
UCUAGU | 1.66 ± 0.054 | 1.83 ± 0.057
UCUAGC | 1.69 ± 0.023 | 1.88 ± 0.13
UUAAAC | 1.7 ± 0.057 | 1.8 ± 0.097
UGCUAC | 1.7 ± 0.033 | 1.85 ± 0.069
CCUCUC | 1.79 ± 0.053 | 1.89 ± 0.14
UUAUCA | 1.76 ± 0.11 | 1.91 ± 0.14
GAUAGG | 1.573 ± 0.0085 | 1.73 ± 0.087
AAUAAG | 1.52 ± 0.064 | 1.7 ± 0.096
GUCGAG | 1.617 ± 0.0063 | 1.76 ± 0.12
GUCGAU | 1.59 ± 0.11 | 1.71 ± 0.096
AGUAGC | 1.618 ± 0.0046 | 1.8 ± 0.12
GGUUUC | 1.8 ± 0.12 | 1.86 ± 0.12
CAAUAC | 1.592 ± 0.015 | 1.73 ± 0.13
CAAUAG | 1.73 ± 0.024 | 1.83 ± 0.14
GGUCUA | 1.52 ± 0.046 | 1.72 ± 0.039
UCCCAA | 1.6799 ± 0.00075 | 1.84 ± 0.077
UGACUU | 1.68 ± 0.043 | 1.85 ± 0.13
CCCCGU | 1.76 ± 0.021 | 1.88 ± 0.14
CCCCGA | 1.6835 ± 0.00018 | 1.84 ± 0.13

Variant | normalized RNA/DNA level without ligand (log10) (cyclic di-GMP [1]) | normalized RNA/DNA level with ligand (log10) (cyclic di-GMP [2])
CCCCGC | 1.77 ± 0.03 | 1.88 ± 0.11
GAUUCC | 1.8 ± 0.097 | 1.87 ± 0.14
UGAGAU | 1.608 ± 0.0039 | 1.78 ± 0.11
CAUGGU | 1.648 ± 0.0024 | 1.77 ± 0.16
UCUCAA | 1.659 ± 0.013 | 1.83 ± 0.12
CGAGCU | 1.82 ± 0.022 | 1.88 ± 0.077
UCAGUU | 1.52 ± 0.16 | 1.74 ± 0.13
AUUUAG | 1.63 ± 0.065 | 1.77 ± 0.077
UGGGUU | 1.717 ± 0.016 | 1.82 ± 0.16
GGCCUC | 1.742 ± 0.015 | 1.83 ± 0.11
UUAACC | 1.78 ± 0.073 | 1.85 ± 0.14
AACGUG | 1.55 ± 0.083 | 1.7 ± 0.096
AUAAAC | 1.647 ± 0.0018 | 1.8 ± 0.13
GCAGAU | 1.43 ± 0.093 | 1.6 ± 0.083
ACGUUA | 1.49 ± 0.045 | 1.65 ± 0.13
ACGUUC | 1.61 ± 0.045 | 1.8 ± 0.1
GCUCGC | 1.82 ± 0.042 | 1.87 ± 0.097
AUAGCC | 1.76 ± 0.022 | 1.87 ± 0.095
CUAUAU | 1.64 ± 0.035 | 1.77 ± 0.13
GUCAAC | 1.65 ± 0.055 | 1.79 ± 0.14
